Experiment in all cases: pull-down binding Z-score (relative to library population); higher = stronger binding
Holding throughout (settings): RNA library: Library-2

One data set concerns TO-N3 (biotin conjugate). A digest of the protocol:
(§1)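 Heat-folded RNA library (1 μg, Cy5 or Cy3 end label, phosphate/NaCl/KCl buffer) was captured for 60 min at 25 °C on streptavidin beads displaying 100 pmol of biotin-conjugated small molecule, then washed three times. The bound fraction, eluted in hot SDS, was hybridised to a DNA barcode microarray at 55.5 °C for 20 h. Z-scores for binding were taken against the library mean and standard deviation after beads-only subtraction and trimmed averaging of replicate barcoded probes.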

Data set [1] deals with TO-3-N3 (biotin conjugate). A digest of the protocol:
as §1

In data set [2] the test system is TO-3-N3-2 (biotin conjugate). In outline: as §1
Data set [3] relates to TO-N3-2 (biotin conjugate). In outline:
as §1

On to GCGCAGCCAGAAACUGGCGGCGC [mismatch-AG], for which the “pull-down binding Z-score” value in the data set on TO-N3 (biotin conjugate) was 0.0293; in data set [1], 0.114; in data set [2], -0.168; in data set [3], -0.228.

Regarding CAGGUACAGUAGAUACUUACCUG [U1snRNP5ss-19], the “pull-down binding Z-score” value is -0.984 in the data set with TO-N3 (biotin conjugate), -0.605 in data set [1], -0.722 in data set [2] and -1.09 in data set [3].

With “GGAGAAGAACCC [IAV_invivo_PB2_1_Motif_3+IAV_invivo_PB2_1_Motif_3]”, the “pull-down binding Z-score” value in the data set on TO-N3 (biotin conjugate) is -0.17; in data set [1], -0.254; in data set [2], -0.0996; in data set [3], 0.0437.

For UGGUUUCCAACCCACUAAUGGUGUUGGUUACCA, the “pull-down binding Z-score” value was -1.05 with TO-N3 (biotin conjugate), -0.662 in data set [1], -0.442 in data set [2] and -1.18 in data set [3].

With GGCUUCAUCAAACAAUAUGGUGAUUGCC, the “pull-down binding Z-score” value in the data set on TO-N3 (biotin conjugate) was -0.484; in data set [1], -0.151; in data set [2], -0.331; in data set [3] it was -1.01.

As to AAUGAGUUUUACGCAUAUUUGCGUAAACAUU, the “pull-down binding Z-score” value is -1.36 in the data set with TO-N3 (biotin conjugate), -0.889 in data set [1], -0.413 in data set [2] and -1.23 in data set [3].

As for “UAAGGAGAGUGUUCAGACAUUCUUUAAGCUUG [DMSMaPseq_invitro_SARS-CoV-2_Motif_43]”, the “pull-down binding Z-score” value with TO-N3 (biotin conjugate) was -0.507; in data set [1], -0.408; in data set [2], -0.244; in data set [3] it was -0.426.

Turning to “UAAACCACCCAUUAGUUUUCCAUUGUGUGCUAAUGGACAAGUUUUUGGUUUA [SHAPE_invivo_SARS-CoV-2_Motif_310]”, the “pull-down binding Z-score” value with TO-N3 (biotin conjugate) is -1; in data set [1], -0.757; in data set [2], -0.357; in data set [3], -1.35.

As to “GCCGGAUCAGACCGAGUGAUGGUAUCACCACUGGC [IAV_invivo_PB2_1_Motif_5+IAV_invivo_PB2_1_Motif_5]”, the “pull-down binding Z-score” value is -0.143 in the data set on TO-N3 (biotin conjugate), -0.361 in data set [1], -0.146 in data set [2] and 0.505 in data set [3].

Take GUGGCCCUGAUGGCUAC: the “pull-down binding Z-score” value was -0.412 in the data set on TO-N3 (biotin conjugate), -0.362 in data set [1], -0.622 in data set [2] and -0.0973 in data set [3].

As to “GGGUUGGGUUGGGUUGGGUUGGGUUGGGUU [G4_r(GGGUU)6]”, the “pull-down binding Z-score” value in the data set on TO-N3 (biotin conjugate) came out at 6.75; in data set [1], 7.99; in data set [2], 10.1; in data set [3] it was 5.08.

Regarding “UGUGACCUUCAAAAUUAUGGUGAUAGUGCAACAUUACCUAAAGGCAUAAUGAUGAAUGUCGCA”, the “pull-down binding Z-score” value in the data set on TO-N3 (biotin conjugate) was -0.621; in data set [1], -0.431; in data set [2] it was -0.486; in data set [3], -1.05.

Turning to GUGCCACUCCAUGGCAC, the “pull-down binding Z-score” value in the data set with TO-N3 (biotin conjugate) was 0.324; in data set [1], 0.641; in data set [2], -0.276; in data set [3] it was -0.862.

“GGUAAAAUUGUUAAUAAUUGGUUGAAGCAGUUAAUUAAAGUUACACUUGUGUUCCUUUUUGUUGCUGCUAUUUUCUAUUUAAUAACACC [DMSMaPseq_invitro_SARS-CoV-2_Motif_156]”: the “pull-down binding Z-score” value with TO-N3 (biotin conjugate) was -0.828; in data set [1] it was -0.485; in data set [2] it was -0.271; in data set [3], -1.04.

As to “ACAUGCCAAUUUAGAUUCUUGCAAAAGAGUCUUGAACGUGGUGUGU”, the “pull-down binding Z-score” value with TO-N3 (biotin conjugate) is -1.48; in data set [1], -1.07; in data set [2] it was -0.712; in data set [3], -1.62.

In the case of “AUAUGUUUACACCACUAAUUCAACCUAUUGGUGCUUUGGACAUAU [DMSMaPseq_invitro_SARS-CoV-2_Motif_171]”, the “pull-down binding Z-score” value in the data set with TO-N3 (biotin conjugate) is -0.635; in data set [1], -0.425; in data set [2], -0.311; in data set [3], -0.719.

As to GACAGCAGAUAUAGUUGUC, the “pull-down binding Z-score” value in the data set with TO-N3 (biotin conjugate) is 0.331; in data set [1], 0.607; in data set [2], 0.368; in data set [3] it was -0.0659.

Consider “UCUUUAAGGAAGGAAGUUCUGUUGAAUUAAAACACUUCUUCUUUGCUCAGGA [DMSMaPseq_invitro_SARS-CoV-2_Motif_265]”, for which the “pull-down binding Z-score” value was -1.23 in the data set on TO-N3 (biotin conjugate), -0.904 in data set [1], -0.179 in data set [2] and -0.953 in data set [3].

For “UAAGGAAGGAAGUUCUGUUGAAUUAAAACACUUCUUCUUUG [SHAPE_invitro_SARS-CoV-2_Motif_269]”, the “pull-down binding Z-score” value was -1.1 in the data set with TO-N3 (biotin conjugate), -0.963 in data set [1], -0.389 in data set [2] and -0.905 in data set [3].

GCAGUAAGUCUGAUACUUACCUG [U1snRNP5ss-9]: the “pull-down binding Z-score” value was found to be 0.947 in the data set on TO-N3 (biotin conjugate), 0.85 in data set [1], 0.129 in data set [2] and 0.892 in data set [3].

Turning to “UCUCUAUGACAAACUUGUUUCAAGCUUUUUGGAAAUGAAGAGUGAAAAGCAAGUUGAACAAAAGAUCGCUGAGA [SHAPE_invitro_SARS-CoV-2_Motif_69]”, the “pull-down binding Z-score” value is -0.0892 in the data set with TO-N3 (biotin conjugate), -0.0465 in data set [1], -0.507 in data set [2] and 0.388 in data set [3].

Consider “AUCUACAAUGAU [DMSMaPseq_invitro_SARS-CoV-2_Motif_243]”, for which the “pull-down binding Z-score” value is -0.892 in the data set on TO-N3 (biotin conjugate), -0.553 in data set [1], -0.742 in data set [2] and -1.55 in data set [3].

As to “UCGUGUUAAAAAUCUGAAUUCUUCUAGAGUUCCUGAUCUUCUGGUCUAAACGAACUAAAUAUUAUAUUAGUUUUUCUGUUUGGAACUUUAAUUUUAGCCAUGG”, the “pull-down binding Z-score” value was -0.609 in the data set on TO-N3 (biotin conjugate), -0.635 in data set [1], -0.138 in data set [2] and -0.59 in data set [3].

On to ACACUCUACGUGU, for which the “pull-down binding Z-score” value is -1.78 with TO-N3 (biotin conjugate), -1.14 in data set [1], -0.979 in data set [2] and -1.93 in data set [3].

Take “GAUUCAGAUCUUAAUGACUUUGUC [SHAPE_invivo_SARS-CoV-2_Motif_393]”: the “pull-down binding Z-score” value with TO-N3 (biotin conjugate) was -0.539; in data set [1], -0.246; in data set [2] it was -0.439; in data set [3], -0.794.

Take AGUACACCUUUGAAAAAGGUGACU: the “pull-down binding Z-score” value was -1.22 in the data set on TO-N3 (biotin conjugate), -0.883 in data set [1], -0.572 in data set [2] and -1.09 in data set [3].

Regarding “AACAAAUGUGUCAAUUUCAACUUCAAUGGUUUAACAGGCACAGGUGUU”, the “pull-down binding Z-score” value in the data set with TO-N3 (biotin conjugate) is -0.754; in data set [1] it was -0.698; in data set [2] it was -0.221; in data set [3] it was -0.968.

GCGCAGCCAGAAACUGGCAGCGC [mismatch-AA]: the “pull-down binding Z-score” value was -0.528 in the data set on TO-N3 (biotin conjugate), -0.468 in data set [1], -0.365 in data set [2] and -0.354 in data set [3].

For the sequence “GGAGAUGAGGCGUUGCCUCCUCC [IAV_invivo_PA_3_Motif_24+IAV_invivo_PA_3_Motif_24]”, the “pull-down binding Z-score” value in the data set with TO-N3 (biotin conjugate) is -1.01; in data set [1] it was -0.646; in data set [2], -0.663; in data set [3], -0.275.

Turning to UGUCCGUGAUCCACAGACA, the “pull-down binding Z-score” value is -0.9 in the data set on TO-N3 (biotin conjugate), -0.695 in data set [1], -0.597 in data set [2] and -0.685 in data set [3].

“AAGAAAGUUGAUGGUGUUGUCCAACAAUUACCUGAAACUUACUU [DMSMaPseq_invitro_SARS-CoV-2_Motif_358]”: the “pull-down binding Z-score” value was -1.34 in the data set with TO-N3 (biotin conjugate), -1.04 in data set [1], -0.423 in data set [2] and -1.44 in data set [3].

For the sequence “AUUGACAUUAAUGGCAAUCUUCAUCCAGAUUCUGCCACUCUUGUUAGU [DMSMaPseq_invitro_SARS-CoV-2_Motif_73]”, the “pull-down binding Z-score” value in the data set with TO-N3 (biotin conjugate) is -0.723; in data set [1], -0.785; in data set [2] it was -0.197; in data set [3], -0.113.

For “CCUGACUUAAAUGGUGAUGUGGUGGCUAUUGAUUAUAAACACUACACACCCUCUUUUAAGAAAGG”, the “pull-down binding Z-score” value in the data set on TO-N3 (biotin conjugate) was -0.206; in data set [1], -0.161; in data set [2], 0.00798; in data set [3], -0.275.

“AACGGGGCGGGCCUGGGCGGGGUAA [G4_2A2_VEGF-Pu22-del]”: the “pull-down binding Z-score” value in the data set with TO-N3 (biotin conjugate) came to 7.15; in data set [1], 8.83; in data set [2], 11; in data set [3] it was 5.22.

(Values after the supplement of paper PMC11865577.)
